To fix the notation:
B1: Hairpin Ribozyme (parent)
chain: GUCCUCUUUCACGUGCGCGUGAAAGAGAGAAGUGAACCAGAGAAACACACGUUGUGGUAUAUUACCUGGUA

The variants in this series derive from B1. The series can be described thus: self-cleavage, relative activity (ratio to wild type); higher = more cleavage; co-transcriptional.
Regarding C10G C37G, the self-cleavage came out at 0.372. In the case of A11C G40A it was 0.318; in that of A11U G25C, 0.205. As to A11U A59C, the self-cleavage was 0.137. As for A11U A59U, the self-cleavage came to 0.256.

On to C10G A59G, for which the self-cleavage turned out to be 0.171. In the case of C10G A59C it was 0.127. In the case of C10A C46A it was 0.109.

C10A C46U: the self-cleavage came out at 0.2. As for C10A C46G, the self-cleavage is 0.1. For the variant C10G U70C, the self-cleavage is 0.93. In the case of C10G U70A it was 0.592; in that of C10U A28G, 0.822; in that of A11U A41U, 1. In the case of A11U A41C it was 1.01.

As to A11G U53C, the self-cleavage is 1.02. Regarding C10A U55G, the self-cleavage was found to be 0.303. In the case of C10A U55C it was 0.248. With C10U G34A the figure was 1.04; with A11C G56C, 0.108; with A11C A39U, 0.37. In the case of A11G G21C it was 0.618; in that of C10A G54C, 0.355; in that of A11U C50G, 0.258. As to A11G C66G, the self-cleavage is 0.173. In the case of A11U G56C it was 0.087; in that of A11C U67G, 0.168.

On to A11C U67A, for which the self-cleavage stood at 0.116. In the case of A11C U55C it was 0.183; in that of A11C U55A, 0.448; in that of C10U A61U, 0.246.

As to C10A G29A, the self-cleavage was 0.111. In the case of A11G G54C it was 0.297; in that of C10U U55A, 0.213; in that of C10U U55C, 0.337. In the case of C10U U55G it was 0.201. With C10G A26G the figure was 0.776. With C10G A26C, the self-cleavage amounted to 0.383. In the case of C10G A26U it was 0.352; in that of A11C G68U, 0.307. In the case of C10U G17U it was 0.665; in that of A11U A30G, 0.0913. In the case of C10G A31C, the self-cleavage is 0.198. With C10G A31G the figure was 0.576; with C10G G25A, 0.211. With C10G G25U the figure was 0.481. In the case of C10U G68C it was 0.229; in that of A11C C18U, 0.94; in that of A11C C18G, 0.775. For A11G A43U, the self-cleavage amounted to 0.199.

Regarding A11G A43C, the self-cleavage worked out at 0.0944. On to A11G A43G, for which the self-cleavage worked out at 0.128. Consider C10U U63C, for which the self-cleavage was determined as 0.102.

A11G G29C: the self-cleavage came to 0.177. In the case of A11U G40C it was 0.178; in that of A11U G40A, 0.242. In the case of A11G C65G it was 0.31; in that of C10A U60C, 0.579. In the case of C10A U60G it was 0.377; in that of C10A U60A, 0.64. Consider A11C A31G, for which the self-cleavage amounted to 0.437. In the case of A11C A31U it was 0.18; in that of C10U U60C, 0.992; in that of C10G C65A, 0.746.

Take A11U A31U: the self-cleavage worked out at 0.0898. In the case of C10A U33A it was 0.153; in that of C10G U14A, 0.635; in that of C10G U14G, 0.378. For C10G U14C, the self-cleavage is 0.573. In the case of A11C C12U it was 0.766. With A11C C12G, the self-cleavage was 0.903. Take C10G A35U: the self-cleavage is 0.517. In the case of A11C U60A it was 0.716. In the case of A11C U60G it was 0.714. In the case of C10G G42C it was 0.307; in that of C10G G42U, 0.214. As for C10A G68A, the self-cleavage came out at 0.177. With A11G U14A, the self-cleavage came to 0.916. With C10G G54A the figure was 0.375; with A11G U52G, 0.681. With C10G G57C the figure was 0.124; with C10G G57A, 0.0913; with C10U A47C, 0.257. With C10U A47G, the self-cleavage came to 0.169.

C10U A47U: the self-cleavage worked out at 0.109. For A11G C37U, the self-cleavage is 0.357.

For A11G A61C, the self-cleavage worked out at 0.14. With C10A A64G the figure was 0.397; with A11C A24G, 0.539; with A11U U52A, 0.85.

As to C10U C48A, the self-cleavage was 0.104. Regarding C10U C48G, the self-cleavage turned out to be 0.134. With A11U A39G the figure was 0.342. In the case of C10G A39C, the self-cleavage worked out at 0.357.

In the case of C10G A39G, the self-cleavage came to 0.267. As for C10A A49G, the self-cleavage worked out at 0.357. Regarding C10G U60C, the self-cleavage amounted to 0.815. In the case of C10G A28C it was 0.306; in that of C10G U67G, 0.205; in that of C10A G17U, 0.681. For the variant C10A G57A, the self-cleavage worked out at 0.162. In the case of A11G G34U, the self-cleavage worked out at 1.17. In the case of A11G C46G it was 0.0993; in that of A11G C46A, 0.0804; in that of C10G A36U, 0.336.

As to C10G C12A, the self-cleavage turned out to be 0.491. In the case of A11G U55C it was 0.105; in that of A11C G32A, 0.179. In the case of A11C G32U it was 0.063; in that of A11G C38G, 0.188; in that of A11G C38A, 0.213. With A11G C38U the figure was 0.432; with A11U G34U, 1.36; with A11G G40U, 0.149. A11U G32A: the self-cleavage amounted to 0.165. In the case of A11U G69A it was 0.402; in that of C10A G32C, 0.0945.

On to C10A G32U, for which the self-cleavage is 0.156. Regarding A11U A28U, the self-cleavage was found to be 0.494. With C10A U14A the figure was 0.661; with C10A U14G, 0.632; with A11G A24C, 0.746. Consider C10G G56U, for which the self-cleavage is 0.109. With C10G G56C the figure was 0.149; with A11G U62A, 0.154; with C10U A30U, 0.12.

With A11U U33A, the self-cleavage is 0.0768. With C10A C38U the figure was 0.425; with C10G A11C, 0.799; with C10G A11U, 0.358. With C10G G68U the figure was 0.148.

C10G G68A: the self-cleavage was 0.172. As to A11U C12G, the self-cleavage is 0.74.

C10G A22C: the self-cleavage is 0.597. With C10U A35C the figure was 0.871; with C10G G34C, 1.08; with C10U U20G, 0.498. In the case of C10G A47C it was 0.307; in that of A11G A28U, 0.447. As to A11C G51U, the self-cleavage was determined as 1.13.

In the case of A11C G51C, the self-cleavage was 0.8. With C10U A26C the figure was 0.687. Regarding A11G U33A, the self-cleavage was determined as 0.0249. On to C10G G19C, for which the self-cleavage came out at 0.539.

Take C10G U52G: the self-cleavage is 0.631. In the case of A11C A28C it was 0.481. With C10U G21U the figure was 0.815; with A11G A39U, 0.495; with C10U C50A, 0.18. Take C10U C50U: the self-cleavage stood at 0.391. As for A11C U52A, the self-cleavage worked out at 0.762. With C10A G19U the figure was 0.59; with A11G G69U, 0.215; with C10A U20A, 0.781.

With C10U C38G, the self-cleavage is 0.269. On to C10U C38U, for which the self-cleavage came out at 0.387.

C10U C38A: the self-cleavage came out at 0.157. With C10A U62G the figure was 0.162. With C10A U62C, the self-cleavage worked out at 0.241. In the case of C10A G40C it was 0.158; in that of C10A G15A, 0.773; in that of C10A G15C, 0.755. In the case of A11C C16A it was 0.759; in that of A11C C16G, 0.578.

Take C10A G21C: the self-cleavage was found to be 0.67. With C10A G21A the figure was 0.856. A11U G27A: the self-cleavage was found to be 0.406.
